These results are taken from patent US7790682B1, “Engineered human acidic fibroblast growth factors and associated methods” (The Florida State University Research Foundation, Inc., priority 2003, dated 2010).

Several values for one entry are separate records, joined by “and”; a condition that tells them apart may be missing. Equal entries are not always repeated.

Data set [1] is described as follows: Folding and unfolding kinetics (Chevron plot, stopped-flow CD, GuHCl). It is filed as physicochemical. The conditions noted are these: for kf: folding rate constant extrapolated to 0M GuHCl; for kf / ku: global Chevron fit; for ΔΔG‡-D / ΔΔG‡-N: in reference to WT*; for ΔΔG‡-D: positive value = decrease in folding activation barrier; for ΔΔG‡-N: positive value = decrease in unfolding activation barrier; for mf: slope of ln(kf) vs GuHCl; for mu: slope of ln(ku) vs GuHCl; for ku: unfolding rate constant extrapolated to 0M GuHCl. How it is done: Due to signal-to-noise considerations, relatively high protein concentrations (>100 μM) of FGF-1 were required for kinetic studies monitored by CD. At these concentrations protein precipitation occurred in ADA buffer. Therefore, a different buffering system was chosen for the kinetic studies to permit higher protein concentrations without precipitation. Protein samples were dialyzed against 50 mM sodium phosphate, 100 mM NaCl, 10 mM ammonium sulfate, 2 mM DTT, and typically 2.5, 3.0 or 3.8M GuHCl pH 7.5 overnight at 298K prior to data collection (higher concentrations of GuHCl were required to ensure complete denaturation for some stabilizing mutations).
Protein samples were degassed for 10 minutes prior to analysis. Refolding was initiated by a 1:10 dilution of protein solutions into 50 mM sodium phosphate, 100 mM NaCl, 10 mM ammonium sulfate, 2 mM DTT pH 7.5 containing either 0.1M or 0.05M increments of GuHCl up to the midpoint of denaturation. All data were collected using an Aviv model SF305 stopped flow system. Data collection times for each protein were designed to quantify the CD signal over 5 half-lives, or >96% of the total expected amplitude.
Protein samples (300 μM) were dialyzed against 50 mM sodium phosphate, 100 mM NaCl, 10 mM ammonium sulfate, 2 mM DTT pH 7.50 buffer overnight at 298K, and degassed for 10 min prior to data collection. Unfolding was initiated by 1:10 dilution of the native protein into 50 mM sodium phosphate, 100 mM NaCl, 10 mM ammonium sulfate, 2 mM DTT pH 7.5 buffer with final GuHCl concentration in the range of 1.5 to 5.5M in 0.5M increments. The unfolding process was quantified by following the change in CD signal at 227 nm, and data collection times for each protein were designed so as to monitor the CD signal over 3 to 4 half-lives, or >93% of the total expected amplitude.
Triplicate scans were collected for both folding and unfolding kinetic data at each GuHCl buffer condition. In all cases, data from at least three separate experiments were averaged. The kinetic rates and amplitudes versus denaturant concentration were calculated from the time dependent change in CD signal using a single exponential model: I(t)=Aexp(−kt)+C (3) where I(t) is the intensity of CD signal at time t, A is the corresponding amplitude, k is the observed rate constant for the reaction and C is a constant that is the asymptote of the CD signal. Folding and unfolding rate constant data were fit to a global function describing the contribution of both rate constants to the observed kinetics as a function of denaturant (“Chevron” plot): In(kobs)=In(kf0exp(mkfD)+ku0exp(mkuD)) (5) where kf0 and ku0 are the folding and unfolding rate constants, respectively, extrapolated to 0M denaturant, mkf and mku are the slopes of the linear functions relating In(kf) and In(ku), respectively, to D, the denaturant concentration. Changes in activation barriers upon mutation were calculated using a modified version of transition state theory: ΔΔG‡-D=RTIn(kf Mut/kfWT*) and ΔΔG‡-N=RTIn(ku Mut/kuWT*) (6) where kf Mut, ku Mut, kf WT* and ku WT* are the folding and unfolding rates for mutant and WT*, respectively, in water. ΔΔG‡-D, and ΔΔG‡-N are the changes in the activation barrier for folding and unfolding, respectively, between mutation and WT*. A positive value for ΔΔG‡-D or ‡‡G‡-N indicates a decrease in the associated activation barrier energy. Isothermal Titration Calorimetry.
Due to the relatively weak differential CD signal of native and denatured FGF-1, the folding kinetics study required relatively high protein concentrations (>5 mg/ml). […] Thus, the refolding rate constants were not obtainable below certain denaturant concentrations for these mutants. […] The SYM6Δ120-122 mutant is substantially destabilized relative to the WT* protein (see Table II) and presents a relatively short “folding arm” in the Chevron plot, for this reason there is greater uncertainty associated with the folding kinetics determined for this mutant. […]

Data set [2] is described as follows: Isothermal equilibrium denaturation in guanidine HCl monitored by CD. The data set is classed as physicochemical. The conditions noted are these: for Cm / m-value / ΔG0: GuHCl, 298K, CD signal at 227 nm; for ΔΔG: relative to WT*, negative value = more stable. As to the method:
Protein samples were equilibrated overnight in 20 mM N-2-(acetamido)iminodiacetic acid (ADA), 100 mM NaCl pH 6.60 at 298K in 0.1M increments of guanidine HCl (GuHCl). All samples contained a final protein concentration of 25 μM. An Aviv model 202 circular dichroism spectrometer (Proterion Corp., Piscataway, N.J.) equipped with a Peltier controlled temperature unit maintaining a constant temperature of 298K was used for all spectroscopic measurements. For each sample, triplicate scans were collected and averaged. Buffer traces were collected, averaged and subtracted from the sample traces. Data smoothing was performed prior to buffer subtraction using a 5-point Fourier transform filter. The denaturation process was monitored by observing the change in CD signal at 227 nm with increasing GuHCl, according to published references. The general purpose non-linear least squares fitting program DataFit™ (Oakdale Engineering, Oakdale Pa.) was used to fit the change in molar ellipticity at 227 nm versus GuHCl concentration to a six parameter two state model: F=(F0N+SN[D]+F0D+SD[D])e^−((ΔG0+m[D]/RT)/1+e^−((ΔG0+m[D]/RT) (1) where [D] is the denaturant concentration, F0N and F0D are the 0M denaturant molar ellipticity intercepts for the native and denatured states, respectively, and SN and SD are the slopes of the native and denatured state baselines, respectively. ΔG0 and m describe the linear function of the unfolding free energy versus denaturant concentration at 298K. The effect of a given mutation upon the stability of the protein (ΔΔG) was calculated by taking the difference between the Cm values for WT* and mutant and multiplying by the average of the m values, as described by Pace and Scholtz (Measuring the conformational stability of a protein; in Protein Structure: A Practical Approach, Creighton, T. E., ed., pp. 299-321, Oxford University Press, Oxford; 1997): ΔΔG=(CmWT*−Cm mutant)(mWT*+mmutant)/2 (2) Folding Kinetics Measurements.
Previous studies by others of the stability and folding of FGF-1 have been performed by monitoring the fluorescence signal of the single buried Trp 107 in FGF-1. This Trp in the WT* structure is somewhat unusual in that it is more highly quenched in the native state than the denatured. […] We have previously compared the fluorescence and CD spectroscopic response of FGF-1 to denaturation by GuHCl and shown essentially indistinguishable results for both his-tagged and non-his-tagged forms. A tabulation of the mutant thermodynamic data from isothermal equilibrium denaturation, monitored by CD signal, is listed in Table II. The data in this table for the SYM6 mutant are from our previously published isothermal equilibrium denaturation study monitored by fluorescence.

With “WT*: Wild type (his-tagged) 140 amino acid form of human FGF-1, SEQ ID NO: 4 [reference compound]”, in data set [1], the kf was 3.31 s⁻¹, the “ΔΔG‡-D” value came to 0 kcal/mol, the “ΔΔG‡-N” value was determined as 0 kcal/mol and the mf was -6.05 M⁻¹. In addition, in data set [1], the mu amounted to 0.47 M⁻¹ and the ku is reported as 0.69 1 × 10^−3 sec^−1. In data set [2], this molecule registered a Cm of 1.06 ± 0.01 M, a m-value of 20.1 ± 0.5 kJ/mol M, a ΔG0 of 5.09 ± 0.19 kcal/mol and a ΔΔG of 0 kcal/mol.

B1: SYM5/Δ104-106: SYM5 FGF-1 mutant plus Ala103→Gly/ΔGlu104/ΔLys105/ΔAsn106 (protein, UniProt P05230 16-155, looked up, variant L44F L73V V109L L111I C117V A103G del104-106)
Fibroblast growth factor 1: FNLPPGNYKKPKLLYCSNGGHFLRILPDGTVDGTRDRSDQHIQFQLSAESVGEVYIKSTETGQYLAMDTDGLVYGSQTPNEECLFLERLEENHYNTYISKKHGWFLGIKKNGSVKRGPRTHYGQKAILFLPLPVSSD
Regarding B1, in data set [1], the kf was 2.00 s⁻¹, the “ΔΔG‡-D” value is -0.299 kcal/mol, the “ΔΔG‡-N” value was -0.0598 kcal/mol and the mf was -3.70 M⁻¹. Also, in data set [1], the mu came to 0.95 M⁻¹ and the ku is given as 0.62 1 × 10^−3 sec^−1. In data set [2], this molecule returned a Cm of 1.47 ± 0.01 M, a m-value of 17.2 ± 0.5 kJ/mol M, a ΔG0 of 6.05 ± 0.22 kcal/mol and a ΔΔG of -1.82 kcal/mol.

B2: SYM6/ΔΔ: SYM6 FGF-1 mutant plus both Δ104-106 and Δ120-122 deletion mutations, SEQ ID NO: 1 (protein)
chain: FNLPPGNYKKPKLLYCSNGGHFLRILPDGTVDGTRDRSDQHIQFQLSAESVGEVYIKSTETGQYLAIDTDGLVYGSQTPNEECLFLERLEENHYNTYISKKHGWFLGIKKNGSVKGTHYGQKAILFLPLPVSSD
modifications: Human FGF-1 mutant SYM6DD
Turning to B2, the folding behavior result in data set [1] (all denaturant concentrations evaluated) is given as “single exponential folding behavior”. In addition, in data set [1], the kf is 74.0 s⁻¹, the “ΔΔG‡-D” value was found to be 1.84 kcal/mol, the “ΔΔG‡-N” value turned out to be 0.602 kcal/mol and the mf was -4.40 M⁻¹. Besides, in data set [1], the mu came to 0.69 M⁻¹ and the ku is reported as 1.90 1 × 10^−3 sec^−1. In data set [2], this molecule had a Cm of 1.91 ± 0.02 M, a m-value of 17.7 ± 0.4 kJ/mol M, a ΔG0 of 8.1 ± 0.14 kcal/mol and a ΔΔG of -3.85 kcal/mol. In addition, the “increase in protein stability” value in data set [2] (in comparison to WT*) was 3.85 kcal/mol and ~3.82 kcal/mol.

B3: SYM5: FGF-1 core mutant Leu44→Phe/Leu73→Val/Val109→Leu/Leu111→Ile/Cys117→Val (protein, UniProt P05230 16-155, looked up, variant L44F L73V V109L L111I C117V)
Fibroblast growth factor 1: FNLPPGNYKKPKLLYCSNGGHFLRILPDGTVDGTRDRSDQHIQFQLSAESVGEVYIKSTETGQYLAMDTDGLVYGSQTPNEECLFLERLEENHYNTYISKKHAEKNWFLGIKKNGSVKRGPRTHYGQKAILFLPLPVSSD
Consider B3, for which, in data set [1], the kf is 2.57 s⁻¹, the “ΔΔG‡-D” value is -0.151 kcal/mol, the “ΔΔG‡-N” value was -0.6 kcal/mol and the mf is -6.44 M⁻¹. For the same molecule, in data set [1], the mu stood at 0.57 M⁻¹ and the ku is listed as 0.25 1 × 10^−3 sec^−1. Moreover, in data set [2], the Cm was found to be 1.05 ± 0.01 M, the m-value was 17.5 ± 0.3 kJ/mol M, the ΔG0 is 4.4 ± 0.096 kcal/mol and the ΔΔG amounted to 0.048 kcal/mol. For the same molecule, the “effect on stability of insertion of both loop regions” value in data set [2] (relative to SYM5ΔΔ) was “+15.0 kJ/mol”.

B4: SYM5/Δ120-122: SYM5 FGF-1 mutant plus Arg119→Gly/ΔGly120/ΔPro121/ΔArg122, SEQ ID NO: 2 (protein)
chain: FNLPPGNYKKPKLLYCSNGGHFLRILPDGTVDGTRDRSDQHIQFQLSAESVGEVYIKSTETGQYLAMDTDGLVYGSQTPNEECLFLERLEENHYNTYISKKHAEKNWFLGIKKNGSVKGTHYGQKAILFLPLPVSSD
modifications: Human FGF-1 mutant SYM5D120-122
Take B4: in data set [1], the kf is 7.29 s⁻¹, the “ΔΔG‡-D” value is 0.468 kcal/mol, the “ΔΔG‡-N” value amounted to 0.502 kcal/mol and the mf was -6.44 M⁻¹. Further, in data set [1], the mu was 0.80 M⁻¹ and the ku was 1.60 1 × 10^−3 sec^−1. Also, in data set [2], the Cm is reported as 1.00 ± 0.02 M, the m-value is reported as 16.6 ± 0.5 kJ/mol M, the ΔG0 was found to be 3.97 ± 0.12 kcal/mol and the ΔΔG was 0.263 kcal/mol.
